For test [1], the target named is human VEGF165 (human) (UniProt P15692). As to the kind of experiment: competition ELISA, hVEGF165 in solution varied. Background: ELISA stands for enzyme-linked immunosorbent assay.
Test [2] has as its target human VEGF (form not stated) (human) (UniProt P15692). As to the kind of experiment: biotin-hVEGF with IgG, free VEGF captured on Avastin.

Sequence of human VEGF165 (human) (P15692 other isoform, or with tags, fused parts or gaps): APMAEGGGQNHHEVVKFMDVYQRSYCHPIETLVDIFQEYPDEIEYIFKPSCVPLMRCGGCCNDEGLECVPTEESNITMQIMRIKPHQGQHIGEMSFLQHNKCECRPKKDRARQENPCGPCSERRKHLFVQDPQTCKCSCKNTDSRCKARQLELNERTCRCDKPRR

As to G6 hIgG (antibody), the IC50 (read off the curve) in test [1] and in test [2] was 3 nM each time.

For the origin of these results see patent US20100322946A1.
